Experimental data from doi:10.1101/2022.03.29.486248 (bioRxiv, 2022).

B1: SufD (subunit of the SufBC2D complex, wild type) (natural protein, Escherichia coli)
chain: MAGLPNSSNALQQWHHLFEAEGTKRSPQAQQHLQQLLRTGLPTRKHENWKYTPLEGLINSQFVSIAGEISPQQRDALALTLDSVRLVFVDGRYVPALSDATEGSGYEVSINDDRQGLPDAIQAEVFLHLTESLAQSVTHIAVKRGQRPAKPLLLMHITQGVAGEEVNTAHYRHHLDLAEGAEATVIEHFVSLNDARHFTGARFTINVAANAHLQHIKLAFENPLSHHFAHNDLLLAEDATAFSHSFLLGGAVLRHNTSTQLNGENSTLRINSLAMPVKNEVCDTRTWLEHNKGFCNSRQLHKTIVSDKGRAVFNGLINVAQHAIKTDGQMTNNNLLMGKLAEVDTKPQLEIYADDVKCSHGATVGRIDDEQIFYLRSRGINQQDAQQMIIYAFAAELTEALRDEGLKQQVLARIGQRLPGGAR
B2: SufC (subunit of the SufBC2D complex) (natural protein, Escherichia coli)
chain: MLSIKDLHVSVEDKAILRGLSLDVHPGEVHAIMGPNGSGKSTLSATLAGREDYEVTGGTVEFKGKDLLALSPEDRAGEGIFMAFQYPVEIPGVSNQFFLQTALNAVRSYRGQETLDRFDFQDLMEEKIALLKMPEDLLTRSVNVGFSGGEKKRNDILQMAVLEPELCILDESDSGLDIDALKVVADGVNSLRDGKRSFIIVTHYQRILDYIKPDYVHVLYQGRIVKSGDFTLVKQLEEQGYGWLTEQQ

Target: T1, SufB (subunit of the His6-SufBC2D complex, wild type) (Escherichia coli, UniProt P77522 1-495)
T1 sequence: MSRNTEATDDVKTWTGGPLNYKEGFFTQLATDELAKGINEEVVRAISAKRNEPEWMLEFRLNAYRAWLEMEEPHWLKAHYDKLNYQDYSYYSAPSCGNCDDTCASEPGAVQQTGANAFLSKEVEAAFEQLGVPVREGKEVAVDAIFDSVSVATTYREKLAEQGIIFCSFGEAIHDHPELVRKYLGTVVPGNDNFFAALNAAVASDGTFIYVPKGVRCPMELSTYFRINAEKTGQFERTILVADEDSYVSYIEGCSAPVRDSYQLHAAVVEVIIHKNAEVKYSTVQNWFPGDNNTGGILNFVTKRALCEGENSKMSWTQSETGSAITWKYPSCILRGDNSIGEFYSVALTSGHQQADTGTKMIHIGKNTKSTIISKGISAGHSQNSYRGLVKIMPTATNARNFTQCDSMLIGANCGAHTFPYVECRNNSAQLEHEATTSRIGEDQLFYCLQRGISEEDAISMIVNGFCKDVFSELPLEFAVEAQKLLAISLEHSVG
Test: SEC-MALS

Row | Binder | stoichiometry N
1 | B1 | 1
2 | B2 | 2
